Measurements: patent publication US20240117018A1

Columns and labels:
Experiment in all cases: cell-based or functional assay
[1] = molecular target: HIV-1 Env pseudovirus X1632_S2_B10 (HIV-1)
[2] = molecular target: HIV-1 Env pseudovirus R2184.c04 (HIV-1)
[3] = molecular target: HIV-1 Env pseudovirus X1193_c1 (HIV-1)
[4] = molecular target: HIV-1 Env pseudovirus BJOX028000.10.3 (HIV-1)
[5] = molecular target: HIV-1 Env pseudovirus BJOX025000.01.1 (HIV-1)
[6] = molecular target: HIV-1 Env pseudovirus C3347.c11 (HIV-1)
[7] = molecular target: HIV-1 Env pseudovirus 3016.v5.c45 (HIV-1)
[8] = molecular target: Env of HIV-1 pseudovirus MS208.A1 (HIV-1)
[9] = molecular target: Env of HIV-1 pseudovirus PVO.4 (HIV-1)
[10] = molecular target: Env of HIV-1 pseudovirus HIV-16055-2.3 (HIV-1)
[11] = molecular target: Env of HIV-1 pseudovirus 7030102001E5(Rev-) (HIV-1)
[12] = molecular target: Env of HIV-1 pseudovirus 1012_11_TC21_3257 (HIV-1)
[13] = molecular target: Env of HIV-1 pseudovirus CNE17 (HIV-1)
[14] = molecular target: Env of HIV-1 pseudovirus 62357_14_D3_4589 (HIV-1)
[15] = molecular target: Env of HIV-1 pseudovirus Ce703010054_2A2 (HIV-1)
[16] = molecular target: Env of HIV-1 pseudovirus 6535.3 (HIV-1)
[17] = molecular target: Env of HIV-1 pseudovirus 0260.v5.c36 (HIV-1)
[18] = molecular target: Env of HIV-1 pseudovirus 1056_10_TA11_1826 (HIV-1)
[19] = molecular target: Env of HIV-1 pseudovirus ZM233M.PB6 (HIV-1)
[20] = molecular target: Env of HIV-1 pseudovirus HIV-0013095-2.11 (HIV-1)
[21] = molecular target: Env of HIV-1 pseudovirus Ce0682_E4 (HIV-1)
[22] = molecular target: Env of HIV-1 pseudovirus 246F C1G (HIV-1)
[23] = molecular target: Env of HIV-1 pseudovirus CAAN5342.A2 (HIV-1)
[24] = molecular target: Env of HIV-1 pseudovirus CNE52 (HIV-1)

8ANC195 (antibody)
IC50 (Titer in TZM.bl cells) [1]: 0.47 µg/mL
IC80 (Titer in TZM.bl cells) [1]: 4.11 µg/mL
IC50 (Titer in TZM.bl cells) [2]: 0.09 µg/mL
IC80 (Titer in TZM.bl cells) [2]: 13 µg/mL
IC50 (Titer in TZM.bl cells) [3]: 0.27 µg/mL
IC80 (Titer in TZM.bl cells) [3]: 1.66 µg/mL
IC50 (Titer in TZM.bl cells) [4]: 0.45 µg/mL
IC80 (Titer in TZM.bl cells) [4]: 2.83 µg/mL
IC50 (Titer in TZM.bl cells) [5]: 4.96 µg/mL
IC80 (Titer in TZM.bl cells) [5]: > 50 µg/mL
IC50 (Titer in TZM.bl cells) [6]: > 50 µg/mL
IC80 (Titer in TZM.bl cells) [6]: > 50 µg/mL
IC50 (Titer in TZM.bl cells) [7]: 0.87 µg/mL
IC80 (Titer in TZM.bl cells) [7]: > 50 µg/mL

PG16 (antibody)
IC50 [8]: 2 ng/mL
IC80 [8]: 4 ng/mL
IC50 [9]: 15.3 µg/mL
IC80 [9]: > 50 µg/mL
IC50 [10]: 0.17 µg/mL
IC80 [10]: > 0.25 µg/mL
IC50 [11]: > 50 µg/mL
IC80 [11]: > 50 µg/mL
IC50 [12]: 0.03 µg/mL
IC80 [12]: 0.219 µg/mL
IC50 [13]: 0.029 µg/mL
IC80 [13]: 0.132 µg/mL
IC50 [14]: > 50 µg/mL
IC80 [14]: > 50 µg/mL
IC50 [15]: 8 ng/mL
IC80 [15]: 0.053 µg/mL
IC50 [16]: 0.653 µg/mL
IC80 [16]: > 50 µg/mL
IC50 [17]: 1.54 µg/mL
IC80 [17]: 36.1 µg/mL
IC50 [18]: 0.315 µg/mL
IC80 [18]: 1.95 µg/mL
IC50 [19]: 2 ng/mL
IC80 [19]: 6 ng/mL
IC50 [20]: 2 ng/mL
IC80 [20]: 6 ng/mL
IC50 [21]: 0.026 µg/mL
IC80 [21]: 0.202 µg/mL
IC50 [22]: > 50 µg/mL
IC80 [22]: > 50 µg/mL
IC50 [23]: 1.83 µg/mL
IC80 [23]: 33 µg/mL
IC50 [24]: 9 ng/mL
IC80 [24]: 0.026 µg/mL

3BNC117 (antibody)
IC50 (Titer in TZM.bl cells) [1]: 15.7 µg/mL
IC80 (Titer in TZM.bl cells) [1]: > 50 µg/mL
IC50 (Titer in TZM.bl cells) [2]: 0.03 µg/mL
IC80 (Titer in TZM.bl cells) [2]: 0.1 µg/mL
IC50 (Titer in TZM.bl cells) [3]: 0.06 µg/mL
IC80 (Titer in TZM.bl cells) [3]: 0.25 µg/mL
IC50 (Titer in TZM.bl cells) [4]: 0.01 µg/mL
IC80 (Titer in TZM.bl cells) [4]: 0.05 µg/mL
IC50 (Titer in TZM.bl cells) [5]: 0.05 µg/mL
IC80 (Titer in TZM.bl cells) [5]: 0.2 µg/mL
IC50 (Titer in TZM.bl cells) [6]: 0.03 µg/mL
IC80 (Titer in TZM.bl cells) [6]: 0.13 µg/mL
IC50 (Titer in TZM.bl cells) [7]: 1.38 µg/mL
IC80 (Titer in TZM.bl cells) [7]: > 30 µg/mL

VRC07 (antibody)
IC50 (Titer in TZM.bl cells) [1]: 0.023 µg/mL
IC80 (Titer in TZM.bl cells) [1]: 0.107 µg/mL
IC50 (Titer in TZM.bl cells) [2]: 0.02 µg/mL
IC80 (Titer in TZM.bl cells) [2]: 0.104 µg/mL
IC50 (Titer in TZM.bl cells) [3]: 0.037 µg/mL
IC80 (Titer in TZM.bl cells) [3]: 0.249 µg/mL
IC50 (Titer in TZM.bl cells) [4]: 0.011 µg/mL
IC80 (Titer in TZM.bl cells) [4]: 0.069 µg/mL
IC50 (Titer in TZM.bl cells) [5]: 0.279 µg/mL
IC80 (Titer in TZM.bl cells) [5]: 2.29 µg/mL
IC50 (Titer in TZM.bl cells) [6]: 0.06 µg/mL
IC80 (Titer in TZM.bl cells) [6]: 0.38 µg/mL
IC50 (Titer in TZM.bl cells) [7]: 0.095 µg/mL
IC80 (Titer in TZM.bl cells) [7]: 0.392 µg/mL
